# Laboratory results: patent publication US7960513B2, “Antibody against a human ADAM protease” (Monash University, priority 2004, dated 2011)
# T1: EphA3 (Homo sapiens, UniProt P29320)
# T1 construct: expressed in transfected cells
# T1 sequence (P29320 21-983): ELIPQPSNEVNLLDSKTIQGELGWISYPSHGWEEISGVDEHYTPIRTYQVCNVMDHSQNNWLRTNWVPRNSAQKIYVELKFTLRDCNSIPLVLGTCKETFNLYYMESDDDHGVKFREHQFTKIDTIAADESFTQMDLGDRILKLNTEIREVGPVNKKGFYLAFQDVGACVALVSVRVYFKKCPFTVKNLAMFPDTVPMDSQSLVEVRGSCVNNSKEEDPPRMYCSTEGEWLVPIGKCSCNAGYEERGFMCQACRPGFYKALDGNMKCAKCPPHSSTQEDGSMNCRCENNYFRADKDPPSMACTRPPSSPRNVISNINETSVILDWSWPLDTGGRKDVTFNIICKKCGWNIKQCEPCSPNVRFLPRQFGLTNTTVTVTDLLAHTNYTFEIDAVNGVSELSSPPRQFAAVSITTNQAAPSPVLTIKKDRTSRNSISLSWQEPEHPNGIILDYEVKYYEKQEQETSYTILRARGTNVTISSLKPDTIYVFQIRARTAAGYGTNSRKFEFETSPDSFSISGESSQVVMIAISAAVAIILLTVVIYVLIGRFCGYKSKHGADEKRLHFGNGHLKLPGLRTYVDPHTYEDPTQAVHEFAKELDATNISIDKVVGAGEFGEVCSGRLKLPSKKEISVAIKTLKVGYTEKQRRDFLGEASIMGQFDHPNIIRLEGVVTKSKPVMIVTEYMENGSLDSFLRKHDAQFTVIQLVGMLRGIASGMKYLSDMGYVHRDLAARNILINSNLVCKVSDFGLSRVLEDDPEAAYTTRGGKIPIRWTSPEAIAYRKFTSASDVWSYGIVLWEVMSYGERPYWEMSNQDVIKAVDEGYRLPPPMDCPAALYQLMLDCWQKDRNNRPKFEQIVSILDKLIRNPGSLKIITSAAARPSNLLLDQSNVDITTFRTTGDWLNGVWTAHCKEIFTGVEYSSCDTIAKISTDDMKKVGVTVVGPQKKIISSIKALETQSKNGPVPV
# B1: ADAM10Δpro: cell-surface ADAM10Δpro incorporating the EEE-A amino acid substitutions (protein)
# chain: SGQPICGNGMVEQGEECDCGYSDQCKDDCCFDANQPEGKKCKLKPGKQCSPSQGPCCTAQCAFKSKSEKCRDDSDCAKEGICNGFTALCPASDPKPNFTDCNRHTQVCINGQCAGSICAKYDLAACTCASSDGKDDKELCHVCCMKKMAPSTCASTGSLQWSKQFSGRTITLQPGSPCNDFRGYCDVFMRCRLVDADGPLARLKKAIFSPQLYENIAEWIVAHWWAVLLMGIALIMLMAGFIKICSVHTPSSNPKLPPPKPLPGTLKRRRPPQPIQQPPRQRPRESYQMGHMRR
# modifications: left off: small tags and cut ends
# notes: cell-surface ADAM10Δpro incorporating the EEE-A amino acid substitutions
# Target: T1, EphA3
# Experiment: Co-immunoprecipitation from transfected cells, Western blot
# Type: cell-based
# Details: EphA3/293 cells, EEE-A substituted construct
# Protocol: FIG. 1. EphA3-ADAM10 association, ephrin-A5 cleavage and ephrin internalisation. • A. Association of ADAM10 with EphA3 in LiBr melanoma cells and parental or stably transfected EphA3/HEK293 cells. The cells were treated with clustered ephrin-Fc (A5 or A2) or were left untreated (−) prior to lysis. Anti-EphA3 immunoprecipitates from lysates were analysed by Western blot for endogenous ADAM10 (“p” and “m” indicate the pro (unprocessed) and mature (processed) forms of ADAM10). Aliquots from immunoprecipitates were blotted for EphA3 levels to indicate loading (lower panel). […] EphA3/HEK293 or ephrin-A5/HEK293 cells were transfected to express HA-tagged ADAM10ΔPM. Western Blots of anti-HA immuno-precipitates were analysed with antibodies against ephrin-A5 and EphA3, parallel control samples with anti-ADAM10 antibodies. Lysates of ephrin-A5/HEK 293 cells were also extracted with Protein-A Sepharose-bound EphA3 Fc and analysed with anti-ephrin-A5 antibodies. • C. […] Pooled cell lysates and supernatants were pre-cleared with excess Protein-A Sepharose, cleaved ephrin-A5 was extracted using EphA3-Fc coupled to Protein-A Sepharose and analysed by anti-ephrin-A5 immuno-blot. Recombinant, monomeric, single-chain ephrin-A5 (Himanen et al., 2004, Nat Neurosci. 7 501-9; ephrin std) was analysed in parallel. • D. Ephrin-A5 cleavage and internalisation are inhibited by dominant-negative ADAM10. […]
molecule,measurement,value
B1,ephrin-independent constitutive association with EphA3,remained unchanged
